The target in data set [1] is Nitrospira inopinata guanidinase (Nitrospira inopinata). In words: SEC-MALS; Superdex 200 Increase 10/300 GL, 20 °C, 20 mM HEPES, 150 mM NaCl, pH 7.4; 80 µl injected at 1 mg/ml; hexamer in solution. Background: SEC sorts molecules by how far they enter the pores of the column.
Substrate in data set [2]: N=C(N)N
In words: urea production, thiosemicarbazide-diacetylmonoxime colorimetry, Michaelis-Menten fit. In kind it is biochemical, Candidatus Nitrospira inopinata. The settings on record: pH 7.5, 37 °C, 20 mM Tris-HCl, 50 mM NaCl, enzyme expressed with 1 mM NiSO4 and assayed with 1 mM Ni2+.

As a reminder, the stoichiometry N is the number of molecules, sites or subunits per partner or assembly. The molecule “Nitrospira inopinata guanidinase (enzyme)” returned a stoichiometry N in data set [1] of 6.

B1: N. inopinata guanidinase (Candidatus Nitrospira inopinata) (protein)
chain: MAKKRTYQGKVPLHDNYGPEAKYAVEAEALLPTTKFEEEIARGLELGLPGADSIKDRRIPTFSRGELPHFAGINTFIKAPYVEDVRKCGQYDVAILGAPFDGGTTYRAGTRFGPQGIRKISALYGTYSFELGVDLRESVSICDVGDIFTIPGNIEKTFDQVSKGVGHVFASGAFPVVLGGDHSLGFATVRGVAQHLNGKKLGILHFDRHVDTQDTDLDERMHTTPWFHATNIPNVPAKNLVQIGIGGWQAPRPGVKAGRERQTTIMTVTDCVEMGIENAAKQALEVAFDGVDAVWLSFDVDCLDAAFVPGTGWPEPGGFLPREVLKFLQIIADTKPLAGMEIVECAPPYDAAEITSLMATRVICDVLACQVRSGHLGNRKKR
notes: full-length, N-terminal His6-MBP tag (pCoofy4) cleaved with HRV-3C; E. coli; homohexamer 240 kDa; Ni/Mn; N-terminus from primer MAKKRTY; residues T105, H182, D207, H209, D211, H222, D299, D301, W313, E344
For orientation: Km means the substrate concentration at which the rate is half of its maximum. As to B1, the Km in data set [2] worked out at 13.6 ± 0.76 mM.

These data come from article PMC11410670, “Growth of complete ammonia oxidizers on guanidine” (Nature, 2024).
